The results in this text go back to publication PMC5493754, “Myosin 7 and its adaptors link cadherins to actin” (Nature Communications, 2017).

Holding throughout (experiment): MST; YFP-fused partner constant at 100 nM, non-fluorescent protein titrated (16 two-fold dilutions); 20 mM Hepes pH 7.0, 100 mM NaCl, 1 mM EGTA, 0.5 mM TCEP, 0.05% Tween 20; Monolith NT.115
Details in all cases: both partners purified

One assay has as its target T1, YFP-Myosin 7a MF2 (human, UniProt Q13402-1 1702-2215).
T1 construct: Myosin 7a, human, MF2, residues 1702-2215 of UniProt Q13402-1; pET14-YFP vector; also called ^YFPM7a MF2; source: E. coli (BL21-AI, BL21 (DE3) Rosetta or BL21-Gold (DE3)), purified (Histrap, CaptoQ, gel filtration)
T1 sequence (looked up): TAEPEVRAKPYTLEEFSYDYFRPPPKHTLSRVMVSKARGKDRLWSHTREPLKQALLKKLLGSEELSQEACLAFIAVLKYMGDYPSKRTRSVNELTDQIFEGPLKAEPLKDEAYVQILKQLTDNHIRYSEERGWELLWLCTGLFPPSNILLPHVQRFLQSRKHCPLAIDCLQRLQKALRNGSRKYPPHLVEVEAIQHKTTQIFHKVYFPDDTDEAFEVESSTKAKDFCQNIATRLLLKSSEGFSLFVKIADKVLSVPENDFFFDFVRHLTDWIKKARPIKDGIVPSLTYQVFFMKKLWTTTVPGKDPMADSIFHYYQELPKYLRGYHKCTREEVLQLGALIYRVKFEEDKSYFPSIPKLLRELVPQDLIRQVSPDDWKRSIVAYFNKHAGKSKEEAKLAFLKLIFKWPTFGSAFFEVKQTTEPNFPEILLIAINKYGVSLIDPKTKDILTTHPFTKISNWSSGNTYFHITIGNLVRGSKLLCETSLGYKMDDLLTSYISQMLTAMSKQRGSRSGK

A further assay deals with T2, Myosin 7b MF2 (human, UniProt Q6PIF6 1605-2116).
T2 construct: also called M7b MF2; Myo7b MF2; source: E. coli (BL21-AI, BL21 (DE3) Rosetta or BL21-Gold (DE3)), purified (Histrap, CaptoQ, gel filtration)
T2 sequence (looked up): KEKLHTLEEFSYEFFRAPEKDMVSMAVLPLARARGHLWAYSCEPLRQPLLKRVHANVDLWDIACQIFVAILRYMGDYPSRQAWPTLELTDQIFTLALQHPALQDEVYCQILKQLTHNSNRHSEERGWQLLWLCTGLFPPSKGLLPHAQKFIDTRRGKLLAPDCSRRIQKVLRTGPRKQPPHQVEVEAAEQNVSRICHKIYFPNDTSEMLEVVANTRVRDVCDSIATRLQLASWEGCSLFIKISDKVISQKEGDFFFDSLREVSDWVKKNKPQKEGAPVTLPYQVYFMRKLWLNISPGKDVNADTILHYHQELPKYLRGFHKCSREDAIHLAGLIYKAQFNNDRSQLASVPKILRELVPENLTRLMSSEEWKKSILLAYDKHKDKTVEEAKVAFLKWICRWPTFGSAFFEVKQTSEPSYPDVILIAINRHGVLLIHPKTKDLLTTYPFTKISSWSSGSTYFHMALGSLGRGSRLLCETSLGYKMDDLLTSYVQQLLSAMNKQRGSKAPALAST

The target in a further assay is T3, Myosin 7b MF2 L2083W (human, UniProt Q6PIF6 1605-2116, L2083W).
T3 construct: Myosin 7b, human, MF2, residues 1605-2116 of UniProt Q6PIF6; also called M7b MF2 L2083W; source: E. coli, purified similarly as wild type (Histrap, CaptoQ, gel filtration)
T3 sequence (looked up): T2 sequence (looked up) with L479W

Changes are numbered by the printed parent chain.

As usually defined, the Kd is the concentration at which binding is half-saturated.

B1: Harmonin-a PDZ3c (non-fluorescent, as used in MST) (domain or fragment, human, UniProt Q9Y6N9-1 428-552, looked up)
chain: QDFRKYEEGFDPYSMFTPEQIMGKDVRLLRIKKEGSLDLALEGGVDSPIGKVVVSAVYERGAAERHGGIVKGDEIMAINGKIVTDYTLAEAEAALQKAWNQGGDWIDLVVAVCPPKEYDDELTFF
notes: Harmonin-a1 (USH1C), human, PDZ3 plus C-terminal peptide, residues 428-552 of UniProt Q9Y6N9-1; The methods say only that samples for ITC or crystallisation were digested with TEV protease; also called PDZ3c (isoA); source: E. coli BL21 (DE3) Rosetta, purified (Glutathione Sepharose 4B, size-exclusion chromatography)
As to B1, the dissociation constant Kd in the assay with YFP-Myosin 7a MF2 came to 1.4 ± 0.2 µM.

B2: YFP-Harmonin-a PDZ3c (domain or fragment, human, UniProt Q9Y6N9-1 428-552, looked up)
chain: B1 chain
notes: Harmonin-a1 (USH1C), human, residues 428-552 of UniProt Q9Y6N9-1; also called ^YFPPDZ3c (isoA); source: E. coli BL21 (DE3) Rosetta, purified (Glutathione Sepharose 4B, size-exclusion chromatography)
For the molecule B2, the Kd with Myosin 7b MF2 is 1.9 ± 0.6 µM; in the assay with Myosin 7b MF2 L2083W it was greater than 300 µM.
